Adipocyte pERK assay: EC50 (read off the curve) [lower row] data for 1 substance are collected here from US20230137351A1.

The target of this test is human beta-Klotho/FGFR1c complex on stable AM-1D cells (human) (UniProt Q86Z14).
Sequence of UniProt Q86Z14 (Q86Z14 whole entry, chain 1 of 2): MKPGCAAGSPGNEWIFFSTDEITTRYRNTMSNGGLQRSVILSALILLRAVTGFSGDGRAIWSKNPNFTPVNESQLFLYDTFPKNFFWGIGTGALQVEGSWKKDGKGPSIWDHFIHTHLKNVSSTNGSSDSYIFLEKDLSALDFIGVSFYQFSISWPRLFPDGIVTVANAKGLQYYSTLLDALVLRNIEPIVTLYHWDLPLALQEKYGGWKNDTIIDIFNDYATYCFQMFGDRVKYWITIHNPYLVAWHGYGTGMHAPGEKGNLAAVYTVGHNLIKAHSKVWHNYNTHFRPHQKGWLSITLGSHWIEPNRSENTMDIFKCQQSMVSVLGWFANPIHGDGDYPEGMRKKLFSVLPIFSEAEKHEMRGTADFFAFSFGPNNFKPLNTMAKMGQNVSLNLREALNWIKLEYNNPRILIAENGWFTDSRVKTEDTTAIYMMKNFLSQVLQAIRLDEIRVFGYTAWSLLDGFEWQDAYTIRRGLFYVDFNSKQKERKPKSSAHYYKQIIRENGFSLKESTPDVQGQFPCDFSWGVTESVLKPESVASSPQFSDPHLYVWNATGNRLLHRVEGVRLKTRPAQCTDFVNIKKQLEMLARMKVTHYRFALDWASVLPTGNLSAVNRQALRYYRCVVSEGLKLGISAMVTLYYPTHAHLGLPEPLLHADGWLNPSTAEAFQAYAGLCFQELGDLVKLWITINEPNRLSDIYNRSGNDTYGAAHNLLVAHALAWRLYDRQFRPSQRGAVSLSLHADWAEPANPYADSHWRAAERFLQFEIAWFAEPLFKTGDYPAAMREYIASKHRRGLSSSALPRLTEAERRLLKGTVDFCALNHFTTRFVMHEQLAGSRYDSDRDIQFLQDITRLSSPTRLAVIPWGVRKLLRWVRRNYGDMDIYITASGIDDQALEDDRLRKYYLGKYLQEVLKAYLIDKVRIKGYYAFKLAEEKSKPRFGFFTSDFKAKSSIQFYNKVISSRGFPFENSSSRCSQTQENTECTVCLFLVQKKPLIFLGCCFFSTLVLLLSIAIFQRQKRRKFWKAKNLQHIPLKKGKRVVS
Sequence of UniProt Q86Z14 (P11362 22-822, chain 2 of 2, further chain): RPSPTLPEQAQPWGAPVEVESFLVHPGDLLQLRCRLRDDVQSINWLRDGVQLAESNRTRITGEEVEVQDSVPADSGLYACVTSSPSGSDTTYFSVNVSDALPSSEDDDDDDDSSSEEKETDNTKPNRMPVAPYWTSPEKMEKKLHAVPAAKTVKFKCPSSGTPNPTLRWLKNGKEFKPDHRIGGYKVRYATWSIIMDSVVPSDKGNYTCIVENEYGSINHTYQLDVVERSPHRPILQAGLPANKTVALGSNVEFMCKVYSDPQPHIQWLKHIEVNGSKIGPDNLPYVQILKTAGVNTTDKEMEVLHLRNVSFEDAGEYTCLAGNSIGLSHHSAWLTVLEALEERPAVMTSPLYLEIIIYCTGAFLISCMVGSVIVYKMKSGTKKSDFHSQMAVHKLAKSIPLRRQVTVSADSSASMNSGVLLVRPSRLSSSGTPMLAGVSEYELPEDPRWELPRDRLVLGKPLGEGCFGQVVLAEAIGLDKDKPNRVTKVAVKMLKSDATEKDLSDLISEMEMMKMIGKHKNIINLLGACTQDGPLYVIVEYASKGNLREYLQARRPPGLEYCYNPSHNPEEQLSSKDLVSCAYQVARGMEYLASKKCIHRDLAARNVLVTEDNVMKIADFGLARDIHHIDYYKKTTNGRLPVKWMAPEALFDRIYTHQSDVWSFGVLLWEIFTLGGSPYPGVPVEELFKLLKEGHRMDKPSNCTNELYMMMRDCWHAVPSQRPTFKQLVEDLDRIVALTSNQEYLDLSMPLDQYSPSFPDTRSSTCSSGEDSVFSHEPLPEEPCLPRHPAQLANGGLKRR

“FGF21 (from UniProt Q9NSA1 29-209) (ligand)” displayed an adipocyte pERK assay: EC50 (read off the curve) [lower row] of 0.7 nM.
